These are literature values, as cited in publication PMC7246992.

In data set [1] the target is linear ubiquitin (Homo sapiens) (UniProt P0CG48).
For data set [2] the target is unchanged. The source holds these as a separate data set.

Where two headings read alike, the source gives them in different places.

optineurin UBAN, sequence (Q96CV9 416-510): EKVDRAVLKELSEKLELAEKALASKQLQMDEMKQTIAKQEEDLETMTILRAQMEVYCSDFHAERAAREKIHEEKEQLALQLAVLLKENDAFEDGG
A20 ZF7, sequence (P21580 756-790): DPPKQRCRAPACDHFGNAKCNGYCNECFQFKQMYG

Regarding optineurin UBAN (from UniProt Q96CV9), the Kd in data set [1] is 1 µM. Regarding A20 ZF7 (from UniProt P21580), in data set [2], the Kd was 9 µM.

What is called Kd is the equilibrium constant for the complex coming apart.
